Data taken from article PMC10659578, “Mechanism of stepwise electron transfer in six-transmembrane epithelial antigen of the prostate (STEAP) 1 and 2” (eLife, 2023).

Test system: T1, Cc1cc2c(cc1C)N(C[C@H](O)[C@H](O)[C@H](O)COP(=O)(O)OP(=O)(O)OC[C@H]1O[C@@H](n3cnc4c(N)ncnc43)[C@H](O)[C@@H]1O)c1[nH]c(=O)[nH]c(=O)c1N2
T1 construct: full-length, expressed and purified as in Kim et al. 2016; detergent-solubilised
Assay: rapid-scan stopped-flow heme reduction (A427), kobs vs [FADH-]
Type: biochemical, Oryctolagus cuniculus
Conditions: fast phase, single-turnover heme reduction, anaerobic, 20 mM HEPES pH 7.5, 150 mM NaCl, 0.1% LMNG

Sequence of STEAP1 (Oryctolagus cuniculus; L230G) (chain, as listed by the source L230G): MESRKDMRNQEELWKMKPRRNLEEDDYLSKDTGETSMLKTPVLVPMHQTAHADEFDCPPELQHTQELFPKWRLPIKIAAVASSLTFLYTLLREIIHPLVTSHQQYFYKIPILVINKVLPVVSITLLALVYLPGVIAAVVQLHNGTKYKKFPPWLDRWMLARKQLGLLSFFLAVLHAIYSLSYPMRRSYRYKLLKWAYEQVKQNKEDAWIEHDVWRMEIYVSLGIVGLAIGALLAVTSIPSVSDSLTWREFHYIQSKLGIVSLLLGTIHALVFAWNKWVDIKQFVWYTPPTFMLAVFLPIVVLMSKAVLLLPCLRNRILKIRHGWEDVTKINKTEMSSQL

Row | Substance | Km (79% of change) [µM] | Km (60% of change) [µM]
1 | STEAP1 (Oryctolagus cuniculus; L230G) | 3.6 | 
2 | STEAP1 (Oryctolagus cuniculus) |  | 4.7
